“Also recorded” adds a separate entry of the source.
B1: MM02: mouse monoclonal antibody against SEMG2(497-509), mIgG2b kappa, VH SEQ ID NO:35, VL SEQ ID NO:42 (antibody, V domains shown)
VH: QIQLVQSGPEVKKPGETVRISCKASGYTLTTAGIQWVQKMPGKGLKWIGWINTHSGVPEYAEDFKGRFAFFLETSASTAYLQISNLKNEDTATYFCARLGLLGYWGQGTTLTVSS
VL: DILLTQSPAILSVSPGERVSFSCRASQSIGTTIHWYQQRTNGSPRLLIKYASESISGIPSRFSGSGSGTDFTLSINSVESEDIADYYCQQSNSWPWTFGGGTKLEIKRA
modifications: UNSURE (1)..(115) VH; UNSURE (1)..(109) VL
B2: MM05: mouse monoclonal antibody against SEMG2(497-509), mIgG1 kappa, VH SEQ ID NO:36, VL SEQ ID NO:43 (antibody, V domains shown)
VH: QVQLQQPGAELVRPGASVKLSCEASGYTFTSYWMNWVKQRPGQGLEWIGMIDPSDSETHYNQMFKDKATLTVDKSSSTAYMQLSSLTSEDSAVYYCARYLGGKEGSFDYWGQGTTLTVSS
VL: DIVMSQSPSSLAVSAGEKVTMSCKSSQSLLNSRTRKNYLAWYQQKPGQSPKLLIYWASTRESGVPDRFTGSGSGTDFTLTISSVQAEDLAVYYCKQSYSLPWTFGGGTKLEIKRA
modifications: UNSURE (1)..(120) VH; UNSURE (1)..(115) VL

Assays:
SEMG2(497-509) fragment = target: T1, SEMG2(497-509) fragment (Homo sapiens, UniProt Q02383); assay: ELISA binding of antibodies to SEMG2(497-509) epitope
T1 construct: SEMG2(497-509) fragment and SEMG2(563-574) fragment were immobilized on the ELISA plate; made in house; host or cells: chemical synthesis
Experimental: Specifically, SEMG2 full-length protein (1-582), SEMG2(354-403) fragment, SEMG2(442-453) fragment, SEMG2(497-509) fragment and SEMG2(563-574) fragment were immobilized on the ELISA plate, and the same concentration of antibodies (MM02, MM05, MM07, MM08, MM13, MM14, HPA042767 and HPA042835) were added. Anti-mouse or anti-rabbit secondary antibodies were then used to detect the corresponding bound antibodies. MM02, MM05, MM07, MM08, MM13, and MM14 all bound to SEMG2(497509) epitope, HPA042767 bound to SEMG2 (354-403) epitope, and HPA042835 bound to […], while none of the antibodies bound to SEMG2 (442-453) control fragment.
Specifically, the preparation of polypeptide antigens and the screening of human natural antibody library were firstly performed. The SEMG2(497-509) polypeptide was synthesized and coupled to BSA and KLH, respectively, and screened in a fully human phage display antibody library. ELISA was used to select clones that bind to antigenic epitopes for preliminary screening. Different unique sequences were obtained after sequencing single colonies, sorted according to affinity sorting, and full-length antibodies were constructed from antigen-binding fragments (Fab) with relatively high affinity. The binding ability and blocking function tests were performed after purification, that is, the effect of the antibody on binding between SEMG2 and CD27 was determined by the ELISA experiment.

[1] = tested on: SEMG2(497-509) polypeptide and glycine mutation scanning sequence group; assay: ELISA epitope mapping with glycine mutation scanning sequence group; assay type: binding, human
From the text: To further precisely define the exact epitopes (specific to the level of single amino acid) to which blocking antibodies MM02, MM05, MM07, MM08, MM13, MM14 bind, corresponding ELISA analysis method was established. […] Anti-mouse or anti-rabbit secondary antibodies were then used to detect the corresponding bound antibodies. […] Meanwhile, the different amino acids in the SEMG2(497-509) sequence had different degrees of influence on the binding of similar blocking antibodies (MM02, MM05, MM07, MM08, MM13, MM14) after substitution by glycine. […] The results precisely define the epitope amino acids associated with MM02 and similar antibodies (i.e., antibodies that block the binding between SEMG2 and CD27), and the contribution of each amino acid to the binding.

[2] = tested on: human malignant melanoma A375 cells; assay: Xenograft model of PBMC-HIS model in human malignant melanoma A375 cells; assay type: in vivo, mouse; conditions: NPSG mice with PBMC and A375, 5 mg/kg intraperitoneally three times a week
Experimental: 30 male NPSG mouse models aged 6-8 week were weighed. A375 cells (with confirmed endogenous expression of SEMG2) were cultured in vitro to obtain 1.8×10^8 cells. After 30 mice were inoculated with PBMC, A375 tumor cells were inoculated on the 3rd day. After that, the proportion of hCD45+ cells in mouse blood and the body weight were measured once a week. After inoculation, tumor volume was measured once a week, and the proportion of hCD45+ cells in mouse blood was measured when the average tumor volume reached about 40-80 mm^3. Mice were grouped randomly based on tumor volume and the proportion of hCD45+ cells in mouse blood, and the administration was started immediately. The date began the administration was considered day 0. […] After the tumor growth, the body weight and tumor volume were measured 3 times a week, and the relative count of hCD45+ cells in mouse blood was monitored by flow cytometry 3 times a week. When the tumor volume reached the end point, blood was collected and the same indexed were detected, and the experiment was ended. […] Measurement of tumor volume: after inoculation and before grouping, when tumors were visible, the tumor volume of experimental animals was measured once a week. After inoculation and grouping, the tumor volume of animals in the experiment was measured twice a week. The tumor volume was measured by a bidirectional measurement method. […]

| Molecule | binding to SEMG2(497-509) epitope (SEMG2(497-509) fragment) | decrease of antibody binding after glycine substitution ([1]; substitution of amino acids at positions 501 and 506) | effect of glycine substitution on antibody binding ([1]; substitution of amino acids at positions 507 and 509) | growth of tumor in mice [2] |
| --- | --- | --- | --- | --- |
| B1 | able to hind to SEMG2(497-509); also recorded: bound | more than 70% | did not significantly affect |  |
| B2 | able to hind to SEMG2(497-509); also recorded: bound |  |  | significantly inhibited the growth of tumor |

From US20230080534A1, “SEMG2 ANTIBODY AND USE THEREOF” (SHANGHAI BIOTROY BIOTECHNIQUE CO., LTD., priority 2020, published 2023)
